Target: RHA (DHX9/RNA helicase A) (UniProt Q08211 1-1270)
Assay: EMSA; 0.5 uM RNA, 0-4 uM RHA; preferred over TAR-PolyA; EMSA: binding buffer A, 10 mM Tris-HCl pH 7.5, 140 mM KCl, 10 mM KCl (so in the source); probably NaCl), 1 mM MgCl2, 37 C 10 min, 1.5% agarose; ITC: binding buffer B
Conditions: protein: recombinant; tags: N-terminal His6 and Mocr tags; label: site-specific 2H labels in some NMR samples; three-way junction

Chain of RHA (DHX9/RNA helicase A) (Q08211 whole entry): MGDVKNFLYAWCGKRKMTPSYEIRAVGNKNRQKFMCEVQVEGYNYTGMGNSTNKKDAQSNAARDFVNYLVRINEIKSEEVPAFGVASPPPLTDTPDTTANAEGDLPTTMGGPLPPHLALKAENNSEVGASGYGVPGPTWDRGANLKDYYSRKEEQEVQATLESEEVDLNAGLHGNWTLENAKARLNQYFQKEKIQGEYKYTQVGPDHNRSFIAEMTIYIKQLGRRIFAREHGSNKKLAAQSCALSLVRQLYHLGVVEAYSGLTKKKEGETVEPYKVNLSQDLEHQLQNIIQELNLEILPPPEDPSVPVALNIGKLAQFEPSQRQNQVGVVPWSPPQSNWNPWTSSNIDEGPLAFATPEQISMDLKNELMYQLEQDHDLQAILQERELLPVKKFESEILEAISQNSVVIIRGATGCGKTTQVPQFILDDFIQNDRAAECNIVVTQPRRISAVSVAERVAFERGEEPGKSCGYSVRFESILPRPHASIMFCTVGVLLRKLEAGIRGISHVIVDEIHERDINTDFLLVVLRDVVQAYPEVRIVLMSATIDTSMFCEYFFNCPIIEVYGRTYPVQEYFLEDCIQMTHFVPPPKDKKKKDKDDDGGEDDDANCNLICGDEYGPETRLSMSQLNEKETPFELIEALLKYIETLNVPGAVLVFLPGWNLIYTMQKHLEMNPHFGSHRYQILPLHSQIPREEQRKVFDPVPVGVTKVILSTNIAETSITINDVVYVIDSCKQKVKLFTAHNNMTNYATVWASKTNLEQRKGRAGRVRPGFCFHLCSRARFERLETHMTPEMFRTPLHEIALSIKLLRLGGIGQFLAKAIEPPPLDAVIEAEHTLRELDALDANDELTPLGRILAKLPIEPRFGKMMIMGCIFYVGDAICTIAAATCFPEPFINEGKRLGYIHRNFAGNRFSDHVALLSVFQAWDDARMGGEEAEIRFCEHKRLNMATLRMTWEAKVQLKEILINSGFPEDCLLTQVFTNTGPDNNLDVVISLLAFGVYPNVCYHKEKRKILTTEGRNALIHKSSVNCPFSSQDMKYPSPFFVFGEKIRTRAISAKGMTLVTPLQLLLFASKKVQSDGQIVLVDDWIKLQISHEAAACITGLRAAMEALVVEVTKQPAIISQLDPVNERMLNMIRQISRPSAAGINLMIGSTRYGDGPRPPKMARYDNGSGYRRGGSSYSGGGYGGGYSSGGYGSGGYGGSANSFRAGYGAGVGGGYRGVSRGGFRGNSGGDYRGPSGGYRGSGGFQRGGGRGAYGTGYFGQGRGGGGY

B1: PBS-segment (nt 125-223) (structured_RNA)
RNA: GGCUCUGGUAACUAGAGAUCCCUCAGACCCUUUUAGUCAGUGUGGAAAAUCUCUAGCAGUGGCGCCCGAACAGGGACUUGAAAGCGAAAGUAAAGCCAGAGCC
binding result: binds
